# Data published in the RNAGym collection of RNA variant scans (doi:10.1093/molbev/msab373).
# B1: Azoarcus group I ribozyme (parent)
# chain: GUGCCUUGCGCCGGGAAACCACGCAAGGGAUGGUGUCAAAUUCGGCGAAACCUAAGCGCCCGCCCGGGCGUAUGGCAACGCCGAGCCAAGCUUCGGCGCCUGCGCCGAUGAAGGUGUAGAGACUAGACGGCACCCACCUAAGGCAAACGCUAUGGUGAAGGCAUAGUCCAGGGAGUGGCGAAAGUCACACAAACCGG
# Variants of: B1
# Assay: reverse-splicing fitness (ratio to wild type); higher = more active; in vitro selection; Mg2+ level not given
# Outline: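 An in vitro group I ribozyme library with randomized positions was T7-transcribed and gel-purified. In triplicate, 10 pmol RNA in EPPS pH 7.5 was reacted with 50 pmoles of a 30-nt RNA substrate for 1 h at 37 °C across several added MgCl2 levels (1–48 mM), then stopped with EDTA. Products were reverse transcribed from a substrate-complementary primer, PCR-amplified and sequenced (HiSeq 4000). Fitness is a variant's read proportion after selection over that before, normalised to wild type.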
row,Variant,reverse-splicing fitness
1,C82A A111U A145G C150A C169G U176A,0.0183
2,C82A A111U A145G C150A C169G U176G,0.00681
3,C82A A111U A145G C150A C169G U176C,0.027
4,C82A A111U A120U A145U C150U C169G,0.00407
5,C82A A111U A120U A145U C150U C169U,0.00362
6,C82A A111U A120U A145U C150U C169A,0.00293
7,C82A A111U A120U C150G C169U U176A,0.00341
8,C82A A111U A120U C150G C169U U176G,0.00327
9,C82A A111U A120U C150G C169U U176C,0.00451
10,C82A A111U A120U A145U C169U,0.0039
11,C82A A111U A120U A145U C169A,0.00249
12,C82A A111U A120U A145U C169G,0.00304
13,C82A A111U A120U C169A U176A,0.00348
14,C82A A111U A120U C169A U176C,0.0039
15,C82A A111U A120U C169A U176G,0.00243
16,C82A A111U A120U C150A C169U U176C,0.00489
17,C82A A111U A120U C150A C169U U176A,0.00587
18,C82A A111U A120U C150A C169U U176G,0.00224
19,C82A A111U A120U A145U C150G C169G,0.00379
20,C82A A111U A120U A145U C150G C169U,0.00332
21,C82A A111U A120U A145U C150G C169A,0.00467

row,Variant,reverse-splicing fitness
1,C82A A111U A145C C169U U176A,0.016
2,C82A A111U A145C C169U U176C,0.0102
3,C82A A111U A145C C169U U176G,0.00582
4,C82A A111U A120U C150G C169G U176G,0.00289
5,C82A A111U A120U C150G C169G U176C,0.00289
6,C82A A111U A120U C150G C169G U176A,0.00475
7,C82A A111U A120U C169G,0.00434
8,C82A A111U A120U C169U,0.00502
9,C82A A111U A120U C169A,0.00416
10,C82A A111U A120U A145C C150A C169A U176C,0.00299
11,C82A A111U A120U A145C C150A C169A U176A,0.00272
12,C82A A111U A120U A145C C150A C169A U176G,0.00263
13,C82A A111U A120U A145U C150A C169G U176A,0.00333
14,C82A A111U A120U A145U C150A C169G U176G,0.00203
15,C82A A111U A120U A145U C150A C169G U176C,0.00291
16,C82A A111U A120U A145G C150G C169U,0.00854
17,C82A A111U A120U A145G C150G C169G,0.00757
18,C82A A111U A120U A145G C150G C169A,0.00923
19,C82A A111U A120U A145C C150U C169A U176C,0.00232
20,C82A A111U A120U A145C C150U C169A U176G,0.00224
21,C82A A111U A120U A145C C150U C169A U176A,0.00281

row,Variant,reverse-splicing fitness
1,C82A A111U A120U A145G C169G U176G,0.00182
2,C82A A111U A120U A145G C169G U176A,0.00391
3,C82A A111U A120U A145G C169G U176C,0.00486
4,C82A A111U A120U A145U C150A C169A U176A,0.00303
5,C82A A111U A120U A145U C150A C169A U176G,0.00212
6,C82A A111U A120U A145U C150A C169A U176C,0.00269
7,C82A A111U A145C C150U C169G,0.00788
8,C82A A111U A145C C150U C169U,0.0112
9,C82A A111U A145C C150U C169A,0.0081
10,C82A A111U A120U A145C,0.0205
11,C82A A111U A120U A145G,0.0209
12,C82A A111U A120U A145U,0.0216
13,C82A A111U A120U A145G C150U C169G,0.00728
14,C82A A111U A120U A145G C150U C169A,0.00728
15,C82A A111U A120U A145G C150U C169U,0.00663
16,C82A A111U A120U A145C C150A,0.00524
17,C82A A111U A120U A145C C150G,0.0059
18,C82A A111U A120U A145C C150U,0.00779
19,C82A A111U A120U A145U C150U C169A U176C,0.00305
20,C82A A111U A120U A145U C150U C169A U176A,0.00366
21,C82A A111U A120U A145U C150U C169A U176G,0.00243

row,Variant,reverse-splicing fitness
1,C82A A111U A120U A145U C150G C169A U176C,0.00325
2,C82A A111U A120U A145U C150G C169A U176G,0.00285
3,C82A A111U A120U A145U C150G C169A U176A,0.00398
4,C82A A111U A120U A145U C150A C169A,0.00286
5,C82A A111U A120U A145U C150A C169G,0.00274
6,C82A A111U A120U A145U C150A C169U,0.00298
7,C82A A111U A145G C150A C169A U176G,0.00853
8,C82A A111U A145G C150A C169A U176C,0.0242
9,C82A A111U A145G C150A C169A U176A,0.0197
10,C82A A111U A120U A145C C150G C169U U176A,0.00314
11,C82A A111U A120U A145C C150G C169U U176G,0.00301
12,C82A A111U A120U A145C C150G C169U U176C,0.00285
13,C82A A111U A120U C150G C169A U176A,0.00623
14,C82A A111U A120U C150G C169A U176C,0.00557
15,C82A A111U A120U C150G C169A U176G,0.00311
16,C82A A111U A120U A145G C150U C169A U176A,0.00815
17,C82A A111U A120U A145G C150U C169A U176C,0.00423
18,C82A A111U A120U A145G C150U C169A U176G,0.00259
19,C82A A111U A120U A145G C150A U176A,0.00879
20,C82A A111U A120U A145G C150A U176G,0.00328
21,C82A A111U A120U A145G C150A U176C,0.00989
